Measured values taken from the Human Domainome abundance scans (Beltran et al. 2025).
± gives the uncertainty stated by the source.

B1: Glucocorticoid receptor, residues 419 to 494; numbered along this chain, P04150 (parent)
chain: KLCLVCSDEASGCHYGVLTCGSCKVFFKRAVEGQHNYLCAGRNDCIIDKIRRKNCPACRYRKCLQAGMNLEARKTK

Variants of: B1
Test: abundance fitness (aPCA) (normalised: wild type 0, dead -1); higher = more abundant; growth selection in yeast, the domain comes from the species named
Conditions: Homo sapiens

Abundance fitness, by site and new letter:
L18: R -0.036 ± 0.036, S 0.038 ± 0.05, E -0.045 ± 0.052, W -0.01 ± 0.047, V 0 ± 0.041, F -0.002 ± 0.067, K -0.088 ± 0.044, I 0.035 ± 0.082, G -0.191 ± 0.042, T -0.031 ± 0.058, A 0.097 ± 0.044, D 0.062 ± 0.062, H -0.012 ± 0.08, Y 0.098 ± 0.086, Q -0.087 ± 0.05, P -0.004 ± 0.055, M -0.077 ± 0.056, N -0.1 ± 0.081
C23: R -0.056 ± 0.36
S22: F 0.043 ± 0.11, D 0.136 ± 0.3, P -0.06 ± 0.38
R29: N -0.007 ± 0.083, K 0.03 ± 0.059, F -0.152 ± 0.076, D 0.02 ± 0.072, S -0.056 ± 0.039, Y -0.072 ± 0.1, C -0.077 ± 0.07, W -0.095 ± 0.046, M -0.113 ± 0.046, Q -0.072 ± 0.045, G -0.057 ± 0.034, A -0.024 ± 0.042, T -0.029 ± 0.056, I 0.018 ± 0.064, L -0.017 ± 0.034, H -0.071 ± 0.075, E 0.033 ± 0.05
C13: D -0.008 ± 0.069, K -0.018 ± 0.043, R -0.025 ± 0.031, W -0.055 ± 0.041, H 0.112 ± 0.061, P -0.07 ± 0.047, F -0.005 ± 0.074, E 0.04 ± 0.04, T 0.003 ± 0.038, L -0.007 ± 0.034, G -0.154 ± 0.033, V 0.015 ± 0.035, S -0.037 ± 0.037, A -0.02 ± 0.038, M -0.027 ± 0.038, I 0.112 ± 0.064, Q 0.001 ± 0.049
A30: I -0.071 ± 0.083, T -0.064 ± 0.05, E -0.142 ± 0.043, N -0.283 ± 0.098, R -0.457 ± 0.045, M 0.051 ± 0.053, F -0.142 ± 0.099, L -0.32 ± 0.043, Q -0.192 ± 0.049, G -0.274 ± 0.038, K -0.165 ± 0.062, D -0.701 ± 0.2, S -0.08 ± 0.042, W -0.183 ± 0.042, Y -0.102 ± 0.1, P -0.907 ± 0.19, H -0.292 ± 0.09, V 0.026 ± 0.037
F27: I -0.26 ± 0.08, A -0.25 ± 0.038, E -1.01 ± 0.16, N -0.722 ± 0.25, K -0.951 ± 0.2, G -0.929 ± 0.089, M -0.144 ± 0.052, Q -0.896 ± 0.14, V -0.386 ± 0.041, P -0.695 ± 0.15, C -0.518 ± 0.11, S -0.681 ± 0.079, D -0.912 ± 0.18, Y 0 ± 0.073, R -0.678 ± 0.053, W -0.071 ± 0.038
K24: G -0.018 ± 0.051, W -0.037 ± 0.089, I -0.245 ± 0.072, L -0.134 ± 0.045, S 0.062 ± 0.055, E 0.011 ± 0.079, N -0.028 ± 0.061, A -0.019 ± 0.05, T -0.096 ± 0.059, C 0.011 ± 0.065, Y 0.017 ± 0.06, Q 0.044 ± 0.06, R -0.105 ± 0.054, V 0.015 ± 0.059, D -0.006 ± 0.087, F -0.092 ± 0.066, P -0.096 ± 0.072, M -0.087 ± 0.077, H -0.026 ± 0.069
T19: A -0.031 ± 0.038, V -0.011 ± 0.035, C 0.061 ± 0.053, G -0.393 ± 0.044, H -0.311 ± 0.1, I -0.057 ± 0.07, M -0.176 ± 0.059, R -0.929 ± 0.099, W -0.743 ± 0.11, L -0.184 ± 0.037, Y -0.697 ± 0.22, D -0.909 ± 0.31, E -1.03 ± 0.19, P -0.791 ± 0.13, N -0.557 ± 0.14, S 0.034 ± 0.039, Q -0.559 ± 0.067
Y15: W 0.008 ± 0.049, H -0.088 ± 0.08, A -0.085 ± 0.041, Q -0.08 ± 0.046, G -0.096 ± 0.035, D -0.055 ± 0.049, C -0.153 ± 0.06, I -0.298 ± 0.084, M -0.009 ± 0.045, T -0.05 ± 0.046, P -0.134 ± 0.048, V -0.208 ± 0.038, N 0.004 ± 0.067, R -0.152 ± 0.036, E -0.067 ± 0.042, L -0.164 ± 0.037
C20: H -0.918 ± 0.31, P -0.594 ± 0.12, L -1.14 ± 0.17, I -1.11 ± 0.49, F -0.717 ± 0.32, M -0.651 ± 0.13, W -0.78 ± 0.11, T -0.87 ± 0.17, V -1.11 ± 0.2, K -0.948 ± 0.17, Q -1.04 ± 0.2, G -0.805 ± 0.12, Y -0.782 ± 0.23, N -0.75 ± 0.26, A -0.837 ± 0.12, S -1.4 ± 0.35
F26: G -1 ± 0.11, N -0.714 ± 0.28, D -1.01 ± 0.26, A -0.877 ± 0.099, R -0.758 ± 0.071, M -0.793 ± 0.14, S -0.703 ± 0.076, C -0.636 ± 0.17, W -0.462 ± 0.065
